Article PMC7949124, “Metallo-β-lactamase domain-containing protein 2 is S-palmitoylated and exhibits acyl-CoA hydrolase activity” (The Journal of Biological Chemistry, 2020)
Numbering of substitutions follows the chain as printed. Names and notes keep the numbering of the source.

B1: MBLAC2 (Homo sapiens) (protein)
chain: MSALEWYAHKSLGDGIFWIQERFYESGNRANIWLVRGSEQDVVIDTGLGLRSLPEYLYSSGLLQDREAKEDAARRPLLAVATHVHFDHSGGLYQFDRVAVHHAEAEALARGDNFETVTWLSDSEVVRTPSPGWRARQFRVQAVQPTLILQDGDVINLGDRQLTVMHMPGHSRGSICLHDKDRKILFSGDVVYDGSLIDWLPYSRISDYVGTCERLIELVDRGLVEKVLPGHFNTFGAERLFRLASNYISKAGICHKVSTFAMRSLASLALRVTNSRTSP
notes: N-terminal hexahistidine tag, C-terminal FLAG; baculovirus/Sf9; zinc metalloenzyme; partly S-palmitoylated at Cys254
B2: MBLAC2 (Homo sapiens; C254A) (protein)
chain: B1 chain with C254A
notes: as for B1

Substrate: CCCCCCCCCCCCCCCC(=O)SCCNC(=O)CCNC(=O)[C@H](O)C(C)(C)COP(=O)(O)OP(=O)(O)OC[C@H]1O[C@@H](n2cnc3c(N)ncnc32)[C@H](O)[C@@H]1OP(=O)(O)O
Test: radiometric acyl-CoA hydrolase assay, heptane extraction of [3H]-palmitate
Format: biochemical, Homo sapiens
Conditions: 30 °C, 10 min, 0.05% DDM, labelled compound ([3H] tracer diluted with unlabelled), fitted over 0-10 μM because of substrate inhibition, n = 4
Text: radiometric acyl-CoA hydrolase assay, heptane extraction of [3H]-palmitate on MBLAC2

| Protein | Km | Vmax |
| --- | --- | --- |
| B1 | 1.9 ± 0.6 µM | 0.103 µmol/min/mg |
| B2 | 2.2 ± 0.7 µM | 0.0879 µmol/min/mg |
